Assay results from patent US20190135895A1 (published 2019).

Legend:
[1] = molecular target: truncated monomeric His-tagged human FcRn (human) (UniProt P55899); assay: SPR (BIAcore 3000), hFcRn injected over immobilized HSA-GST variant, pH 6.0, 1:1 Langmuir model
WT HSA-GST = molecular target: T1, WT HSA-GST (human, UniProt P08515 1-218 = GST); assay: ELISA, mFcRn captured on rabbit IgG, pH 6.0
T1 construct: Secreted from HEK293E cells; also called WT-GST; WT HSA fusion

Sequence of truncated monomeric His-tagged human FcRn (human) (P55899 24-297 limits assumed, chain 1 of 2): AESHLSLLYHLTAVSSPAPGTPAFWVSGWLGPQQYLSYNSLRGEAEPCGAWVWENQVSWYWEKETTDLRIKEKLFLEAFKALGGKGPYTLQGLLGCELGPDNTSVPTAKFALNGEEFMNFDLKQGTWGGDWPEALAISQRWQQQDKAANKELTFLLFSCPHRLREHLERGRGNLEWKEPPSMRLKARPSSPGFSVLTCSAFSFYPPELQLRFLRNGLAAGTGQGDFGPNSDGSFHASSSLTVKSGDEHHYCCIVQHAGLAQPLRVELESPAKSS
Sequence of truncated monomeric His-tagged human FcRn (human) (chain, as listed by the source limits assumed, chain 2 of 2): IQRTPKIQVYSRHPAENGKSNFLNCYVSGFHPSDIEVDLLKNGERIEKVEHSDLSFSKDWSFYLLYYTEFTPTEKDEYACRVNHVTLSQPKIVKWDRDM

## HSA E505Q-GST (from UniProt P08515 1-218)
[1]
  Kd: 23.1 nM

B1: truncated monomeric His-tagged mouse FcRn (receptor)
chain 1: SETRPPLMYHLTAVSNPSTGLPSFWATGWLGPQQYLTYNSLRQEADPCGAWMWENQVSWYWEKETTDLKSKEQLFLEALKTLEKILNGTYTLQGLLGCELASDNSSVPTAVFALNGEEFMKFNPRIGNWTGEWPETEIVANLWMKQPDAARKESEFLLNSCPERLLGHLERGRRNLEWKEPPSMRLKARPGNSGSSVLTCAAFSFYPPELKFRFLRNGLASGSGNCSTGPNGDGSFHAWSLLEVKRGDEHHYQCQVEHEGLAQPLTVDLDSSARSS
chain 2: IQKTPQIQVYSRHPPENGKPNILNCYVTQFHPPHIEIQMLKNGKKIPKVEMSDMSFSKDWSFYILAHTEFTPTETDTYACRVKHASMAEPKTVYWDRDM
notes: extracellular domain; Made in a Baculovirus system; also called mFcRn; soluble mFcRn; not shown: His tag
WT HSA-GST
  binding result: no binding
